The record followed here is patent publication WO2013157102A1 (dated 2013).

First the molecules themselves.
B1: humanized antibody 1 (antibody, V domains shown)
VH: QVQLVESGGGVVQPGRSLRLSCSSSGFIFSNYGMSWVRQAPEKRLEWVATISNSGRYTYFPDSVKGRFTISRDNSKNTLFLQMDSLRPEDTGVYFCARHLDYANYDAMDYWGQGTPVTVSS
VL: DIVMTQSPNSLAVSLGERATINCRASKSVTTSDFSYMHWYQQKPGQPPKLLIYLASNLESGVPDRFSGSGSGTDFTLTISSLQAEDVAVYYCQHSREFPWTFGQGTKLEIK
notes: Expressed transiently in HEK293 cells and detected with anti-human IgG; also called VH-1 combined with VL-1; mucin subtype 5AC-specific humanized antibody
B2: humanized antibody 2 (antibody, V domains shown)
VH: EVQLLESGGGLVQPGGSLRLSCAASGFTFSNYGMSWVRQAPGKGLEWVSTISNSGRYTYFPDSVKGRFTISRDNSKNTLYLQMNSLRAEDTAVYYCAKHLDYANYDAMDYWGQGTLVTVSS
VL: DIVMTQTPLSSPVTLGQPASISCRASKSVTTSDFSYMHWLQQRPGQPPRLLIYLASNLESGVPDRFSGSGAGTDFTLKISRVEAEDVGVYYCQHSREFPWTFGQGTKVEIK
notes: Detected with anti-human IgG; also called VH-4 combined with VL-5; mucin subtype 5AC-specific humanized antibody
B3: humanized antibody 9 (antibody, V domains shown)
VH: QVQLQESGPGLVRPSQSLKLTCTVSGSTFSNYGMSWVRQTPEKRLEWIGTISNSGRYTYFPDSVKGRVTMLVDTSKNQFSLQMSSVTAADTAVYYCARHLDYANYDAMDYWGQGSLVTVSS
VL: B2 VL
notes: Detected with anti-human IgG; also called VH-3 combined with VL-5; mucin subtype 5AC-specific humanized antibody
B4: humanized antibody 4 (antibody, V domains shown)
VH: B2 VH
VL: DIQMTQSPSSLAVSLGDRVTITCRASKSVTTSDFSYMHWYQQKPGLAPKLLIYLASNLESGVPSRFSGSGSGTDFTFTISSLQPEDIATYYCQHSREFPWTFGQGTKVEVK
notes: also called VH-4 combined with VL-3; mucin subtype 5AC-specific humanized antibody
B5: humanized antibody 10 (antibody, V domains shown)
VH: B2 VH
VL: B2 VL with S11L, P12S, L15P, L40Y, Q41L, R43K, R49Q, A71S
notes: Detected with anti-human IgG; also called VH-4 combined with VL-7; mucin subtype 5AC-specific humanized antibody
B6: humanized antibody 7 (antibody, V domains shown)
VH: B2 VH with L5V, L11V, Q13R, S30D, S75A, T78S, V93L, Y95H, K98R
VL: B2 VL
notes: Detected with anti-human IgG; also called VH-6 combined with VL-5; mucin subtype 5AC-specific humanized antibody
B7: humanized antibody 5 (antibody, V domains shown)
VH: B2 VH
VL: B4 VL with K43T, L46K, F75Y, V108L, E109Q, V110I, K111T
notes: Detected with anti-human IgG; also called VH-4 combined with VL-4; mucin subtype 5AC-specific humanized antibody
B8: humanized antibody 6 (antibody, V domains shown)
VH: B2 VH with L5V, Q13K, S75A, T78S, K98R
VL: B2 VL
notes: Detected with anti-human IgG; also called VH-5 combined with VL-5; mucin subtype 5AC-specific humanized antibody
B9: humanized antibody 3 (antibody, V domains shown)
VH: B2 VH
VL: B4 VL with S10T, L46K, I52M, S67I, D74E, F77L, E85D, I87F
notes: Detected with anti-human IgG; also called VH-4 combined with VL-2; mucin subtype 5AC-specific humanized antibody
B10: mucin subtype 5AC-specific mouse antibody (antibody, V domains shown)
VH: EVKLVESGGVLVKSGGSLKLSCAVSGFTFSNYGMSWVRQTPEKRLEWVATISNSGRYTYFPDSVKGRFAISRDNAKNNLYLQMSSLRSADTALYYCTRHLDYANYDAMDYWGQGTSVTVSS
VL: DIVLTQSPASLAVSLGQRATISCRASKSVTTSDFSYMHWYQQKPGQPPKLLLYLASNLESGVPDRFSGSGSGTDFTLNIHPVEEEDAATYYCQHSREFPWTFGGGTKLEIK
notes: Detected with anti-mouse IgG

Where a chain is given by its changes, count along the chain named.

One assay addresses T1, mucin subtype 5AC expressed on BxPC3 cells (human, UniProt P98088 28-5654).
T1 construct: whole, on cells; also called mucin 5AC; MUC5AC
Description: flow cytometry on BxPC3 cells expressing mucin subtype 5AC, 20 ug/mL antibody, Alexa Fluor 488 anti-human IgG.
Regarding B1, the binding result is “binds”.
Same read-out and setting: next, B2: “binds”; B3: “binds”; B4: “binds”.
The same measure, in the same setting: the result for B5 reads “binds”; that for B6, “binds”; that for B7, “binds”.
As to B8, the binding result is recorded as “binds”.
Still for that read-out and setting: next, B9: “binds”.

A further assay addresses T1, mucin subtype 5AC expressed on BxPC3 …. As to the kind of experiment: flow cytometry on BxPC3 cells expressing mucin subtype 5AC, 20 ug/mL antibody, Alexa Fluor 488 anti-mouse IgG; mouse antibody is the positive reference.
For the molecule B10, the binding result was “binds”.
